B1: Hammerhead Ribozyme (parent)
chain: ACCGGAUGUGCUUUCCGGUCUGAUGAGUCCGUGAGGACGAAACAG

Variants of: B1
Assay: self-cleavage, relative activity (ratio to wild type); higher = more cleavage; co-transcriptional
Work on ACCGGAUGUGCUUUCCGGUCCGAUGAGUCCGUGCGGACGAAACAG [U21C A34C] yielded a self-cleavage of 0.316.
Variant ACCGGAUGUGCUUUCCGGUCCGAUGAGUCCGUGUGGACGAAACAG [U21C A34U] has a self-cleavage of 0.749.
In the case of ACCGGAUGUGCUUUCCGGUCCGAUGAGUCCGUGGGGACGAAACAG [U21C A34G], the self-cleavage is reported as 0.653.
ACCGGAUGUGCUUUCCGGUCCGAUGAGUCCGUGAGGACCAAACAG [U21C G39C] showed a self-cleavage of 0.378.
In the case of ACCGGAUGUGCUUUCCGGUCCGAUGAGUCCGUGAGGACUAAACAG [U21C G39U], the self-cleavage is reported as 0.34.
Variant ACCGGAUGUGCUUUCCGGUCCGAUGAGUCCGUGAGGACAAAACAG [U21C G39A] has a self-cleavage of 0.304.
Work on ACCGGAUGUGCUUUCCGGUCAGAUGAGUCCGUGAGAACGAAACAG [U21A G36A] yielded a self-cleavage of 0.41.
Variant ACCGGAUGUGCUUUCCGGUCAGAUGAGUCCGUGAGUACGAAACAG [U21A G36U] has a self-cleavage of 0.418.
In the case of ACCGGAUGUGCUUUCCGGUCAGAUGAGUCCGUGAGCACGAAACAG [U21A G36C], the self-cleavage is reported as 0.283.
With ACCGGAUGUGCUUUCCGGUCCGAUGAGUCCGUGAGAACGAAACAG [U21C G36A] the self-cleavage was 0.718.
Variant ACCGGAUGUGCUUUCCGGUCCGAUGAGUCCGUGAGCACGAAACAG [U21C G36C] has a self-cleavage of 0.366.
Variant ACCGGAUGUGCUUUCCGGUCCGAUGAGUCCGUGAGUACGAAACAG [U21C G36U] has a self-cleavage of 0.665.
Work on ACCGGAUGUGCUUUCCGGUCCGAUGAGUCCGUGAGGAUGAAACAG [U21C C38U] yielded a self-cleavage of 0.629.
With ACCGGAUGUGCUUUCCGGUCCGAUGAGUCCGUGAGGAAGAAACAG [U21C C38A] the self-cleavage was 0.711.
For ACCGGAUGUGCUUUCCGGUCCGAUGAGUCCGUGAGGAGGAAACAG [U21C C38G], the self-cleavage was 0.659.
ACCGGAUGUGCUUUCCGGUCCGAUGAGUCCGUAAGGACGAAACAG [U21C G33A] showed a self-cleavage of 0.74.
Variant ACCGGAUGUGCUUUCCGGUCCGAUGAGUCCGUCAGGACGAAACAG [U21C G33C] has a self-cleavage of 0.756.
ACCGGAUGUGCUUUCCGGUCCGAUGAGUCCGUUAGGACGAAACAG [U21C G33U] showed a self-cleavage of 0.795.
Work on ACCGGAUGUGCUUUCCGGUCCAAUGAGUCCGUGAGGACGAAACAG [U21C G22A] yielded a self-cleavage of 0.335.
ACCGGAUGUGCUUUCCGGUCCCAUGAGUCCGUGAGGACGAAACAG [U21C G22C] gave a self-cleavage of 0.39.
Variant ACCGGAUGUGCUUUCCGGUCCUAUGAGUCCGUGAGGACGAAACAG [U21C G22U] has a self-cleavage of 0.277.
In the case of ACCGGAUGUGCUUUCCGGUCAGAAGAGUCCGUGAGGACGAAACAG [U21A U24A], the self-cleavage is reported as 0.652.
With ACCGGAUGUGCUUUCCGGUCAGACGAGUCCGUGAGGACGAAACAG [U21A U24C] the self-cleavage was 0.329.
ACCGGAUGUGCUUUCCGGUCAGAGGAGUCCGUGAGGACGAAACAG [U21A U24G] showed a self-cleavage of 0.516.
Work on ACCGGAUGUGCUUUCCGGUCCGAGGAGUCCGUGAGGACGAAACAG [U21C U24G] yielded a self-cleavage of 1.07.
For ACCGGAUGUGCUUUCCGGUCCGAAGAGUCCGUGAGGACGAAACAG [U21C U24A], the self-cleavage was 1.13.
Work on ACCGGAUGUGCUUUCCGGUCCGACGAGUCCGUGAGGACGAAACAG [U21C U24C] yielded a self-cleavage of 0.909.
ACCGGAUGUGCUUUCCGGUCCGAUGAGUCCGUGAGGGCGAAACAG [U21C A37G] gave a self-cleavage of 0.866.
With ACCGGAUGUGCUUUCCGGUCCGAUGAGUCCGUGAGGCCGAAACAG [U21C A37C] the self-cleavage was 0.907.
ACCGGAUGUGCUUUCCGGUCCGAUGAGUCCGUGAGGUCGAAACAG [U21C A37U] gave a self-cleavage of 0.72.
ACCGGAUGUGCUUUCCGGUCCGAUGAGUCCGUGAGGACGGAACAG [U21C A40G] gave a self-cleavage of 0.371.
ACCGGAUGUGCUUUCCGGUCCGAUGAGUCCGUGAGGACGCAACAG [U21C A40C] showed a self-cleavage of 0.393.
In the case of ACCGGAUGUGCUUUCCGGUCCGAUGAGUCCGUGAGGACGUAACAG [U21C A40U], the self-cleavage is reported as 0.274.
With ACCGGAUGUGCUUUCCGGUCGGAUGAGUCCGUGAGGACGGAACAG [U21G A40G] the self-cleavage was 0.345.
ACCGGAUGUGCUUUCCGGUCGGAUGAGUCCGUGAGGACGUAACAG [U21G A40U] showed a self-cleavage of 0.331.
ACCGGAUGUGCUUUCCGGUCGGAUGAGUCCGUGAGGACGCAACAG [U21G A40C] gave a self-cleavage of 0.312.
In the case of ACCGGAUGUGCUUUCCGGUCGGAUGUGUCCGUGAGGACGAAACAG [U21G A26U], the self-cleavage is reported as 0.431.
In the case of ACCGGAUGUGCUUUCCGGUCGGAUGCGUCCGUGAGGACGAAACAG [U21G A26C], the self-cleavage is reported as 0.237.
In the case of ACCGGAUGUGCUUUCCGGUCGGAUGGGUCCGUGAGGACGAAACAG [U21G A26G], the self-cleavage is reported as 0.343.
In the case of ACCGGAUGUGCUUUCCGGUCAGAUGAGUCCGUGACGACGAAACAG [U21A G35C], the self-cleavage is reported as 0.492.
Work on ACCGGAUGUGCUUUCCGGUCAGAUGAGUCCGUGAAGACGAAACAG [U21A G35A] yielded a self-cleavage of 0.52.
Work on ACCGGAUGUGCUUUCCGGUCAGAUGAGUCCGUGAUGACGAAACAG [U21A G35U] yielded a self-cleavage of 0.466.
ACCGGAUGUGCUUUCCGGUCCGAUGAGUCCCUGAGGACGAAACAG [U21C G31C] gave a self-cleavage of 0.678.
In the case of ACCGGAUGUGCUUUCCGGUCCGAUGAGUCCUUGAGGACGAAACAG [U21C G31U], the self-cleavage is reported as 0.83.
Work on ACCGGAUGUGCUUUCCGGUCCGAUGAGUCCAUGAGGACGAAACAG [U21C G31A] yielded a self-cleavage of 0.974.
In the case of ACCGGAUGUGCUUUCCGGUCCGAUGAGUCCGUGAGGACGAAAAAG [U21C C43A], the self-cleavage is reported as 0.216.
Work on ACCGGAUGUGCUUUCCGGUCCGAUGAGUCCGUGAGGACGAAAGAG [U21C C43G] yielded a self-cleavage of 0.415.
Work on ACCGGAUGUGCUUUCCGGUCCGAUGAGUCCGUGAGGACGAAAUAG [U21C C43U] yielded a self-cleavage of 0.487.
ACCGGAUGUGCUUUCCGGUCGGAUGAGUCCGUGUGGACGAAACAG [U21G A34U] gave a self-cleavage of 0.348.
ACCGGAUGUGCUUUCCGGUCGGAUGAGUCCGUGCGGACGAAACAG [U21G A34C] showed a self-cleavage of 0.278.
Work on ACCGGAUGUGCUUUCCGGUCGGAUGAGUCCGUGGGGACGAAACAG [U21G A34G] yielded a self-cleavage of 0.602.
Work on ACCGGAUGUGCUUUCCGGUCGGUUGAGUCCGUGAGGACGAAACAG [U21G A23U] yielded a self-cleavage of 0.448.
ACCGGAUGUGCUUUCCGGUCGGGUGAGUCCGUGAGGACGAAACAG [U21G A23G] gave a self-cleavage of 0.387.
Variant ACCGGAUGUGCUUUCCGGUCGGCUGAGUCCGUGAGGACGAAACAG [U21G A23C] has a self-cleavage of 0.36.
ACCGGAUGUGCUUUCCGGUCAGAUGAGUCCGUGAGGACGAAACAC [U21A G45C] showed a self-cleavage of 0.335.
For ACCGGAUGUGCUUUCCGGUCAGAUGAGUCCGUGAGGACGAAACAA [U21A G45A], the self-cleavage was 0.329.
Work on ACCGGAUGUGCUUUCCGGUCAGAUGAGUCCGUGAGGACGAAACAU [U21A G45U] yielded a self-cleavage of 0.432.

Source: the RNAGym collection of RNA variant scans (doi:10.7554/elife.80360)
